Assay results as given in paper PMC2680549 (Nature structural & molecular biology, 2008).
Each block holds one binder with its values, some of them ahead of it.

What was measured:
[1] = biological target: Hsc70 nucleotide binding domain (human Hsc70 1-381) (human, UniProt P11142 1-381); experiment: pull-down
AUC [2] = biological target: the molecule itself; experiment: AUC
AUC [3] = biological target: the molecule itself; experiment: AUC; remark: listed apart in the source

Chain of Hsc70 nucleotide binding domain (human Hsc70 1-381) (P11142 1-381): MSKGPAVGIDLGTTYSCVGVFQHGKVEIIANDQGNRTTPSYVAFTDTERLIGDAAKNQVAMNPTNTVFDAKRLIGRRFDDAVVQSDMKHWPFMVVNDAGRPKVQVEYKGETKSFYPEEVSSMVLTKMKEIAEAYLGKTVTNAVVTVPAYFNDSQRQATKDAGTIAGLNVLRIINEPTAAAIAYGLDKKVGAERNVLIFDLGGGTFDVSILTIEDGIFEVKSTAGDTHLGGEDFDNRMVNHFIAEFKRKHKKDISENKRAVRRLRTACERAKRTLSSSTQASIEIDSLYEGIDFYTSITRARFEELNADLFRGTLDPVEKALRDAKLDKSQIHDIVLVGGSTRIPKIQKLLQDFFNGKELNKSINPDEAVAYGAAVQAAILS

binding result [1]: binds
B1: GST-fused full-length human Bag2, wild type (natural protein, UniProt O95816 1-211, looked up)
chain: MAQAKINAKANEGRFCRSSSMADRSSRLLESLDQLELRVEALREAATAVEQEKEILLEMIHSIQNSQDMRQISDGEREELNLTANRLMGRTLTVEVSVETIRNPQQQESLKHATRIIDEVVNKFLDDLGNAKSHLMSLYSACSSEVPHGPVDQKFQSIVIGCALEDQKKIKRRLETLLRNIENSDKAIKLLEHSKGAGSKTLQQNAESRFN

B2: Near full-length murine Bag2 (Bag2 21-210) (domain or fragment, mouse, UniProt Q91YN9 21-210, looked up)
chain: MADRSSRLLESLDQLELRVEALRDAATAVEQEKEILLEMIHSIQNSQDMRQISDGEREELNLTANRLMGRTLTVEVSVETIRNPQQEESLKHATRIIDEVVSKFLDDLGNAKSHLMSLYSACSSEVPPGPVDQKFQSIVIGCALEDQKKIKRRLETLLRNIDNSDKAIKLLEHAKGAGSKSLQNTDGKFN
stoichiometry N (AUC [2]): ≥ 4

B3: Mouse Bag2-BNB (murine Bag2 107-189) (domain or fragment, UniProt Q91YN9 107-189, looked up)
chain: EESLKHATRIIDEVVSKFLDDLGNAKSHLMSLYSACSSEVPPGPVDQKFQSIVIGCALEDQKKIKRRLETLLRNIDNSDKAIK
Kd (AUC [3]): 4.5 ± 2 µM
